Assay results taken from article doi:10.1101/2025.07.30.667432 (bioRxiv, 2025).

Assays:
Assay in all cases: affinity purification with mass spectrometry
[1] = target: Nic96 (Saccharomyces cerevisiae, UniProt P34077)
[2] = target: Nsp1 (Saccharomyces cerevisiae (strain ATCC …, UniProt P14907))
[3] = target: Nup49 (Saccharomyces cerevisiae (strain ATCC …, UniProt Q02199))
[4] = target: Nup57 (Saccharomyces cerevisiae (strain ATCC …, UniProt P48837))
[5] = target: Pom152 (Saccharomyces cerevisiae (strain ATCC …, UniProt P39685))
[6] = target: Nup192 (Saccharomyces cerevisiae (strain ATCC …, UniProt P47054))
[7] = target: Pom34-ZZ (Saccharomyces cerevisiae (strain ATCC …, UniProt Q12445))

Measured: binding result

Sequence of Pom34-ZZ (Saccharomyces cerevisiae (Q12445 whole entry): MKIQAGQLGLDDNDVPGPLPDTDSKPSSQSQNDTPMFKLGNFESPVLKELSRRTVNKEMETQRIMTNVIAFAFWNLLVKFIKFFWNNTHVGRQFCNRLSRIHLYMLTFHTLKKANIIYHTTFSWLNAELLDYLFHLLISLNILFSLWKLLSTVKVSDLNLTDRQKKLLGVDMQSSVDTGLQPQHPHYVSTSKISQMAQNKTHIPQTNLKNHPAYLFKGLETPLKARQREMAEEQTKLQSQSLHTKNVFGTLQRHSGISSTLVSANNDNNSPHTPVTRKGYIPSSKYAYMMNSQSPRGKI
Sequence of Nup57 (Saccharomyces cerevisiae (P48837 whole entry): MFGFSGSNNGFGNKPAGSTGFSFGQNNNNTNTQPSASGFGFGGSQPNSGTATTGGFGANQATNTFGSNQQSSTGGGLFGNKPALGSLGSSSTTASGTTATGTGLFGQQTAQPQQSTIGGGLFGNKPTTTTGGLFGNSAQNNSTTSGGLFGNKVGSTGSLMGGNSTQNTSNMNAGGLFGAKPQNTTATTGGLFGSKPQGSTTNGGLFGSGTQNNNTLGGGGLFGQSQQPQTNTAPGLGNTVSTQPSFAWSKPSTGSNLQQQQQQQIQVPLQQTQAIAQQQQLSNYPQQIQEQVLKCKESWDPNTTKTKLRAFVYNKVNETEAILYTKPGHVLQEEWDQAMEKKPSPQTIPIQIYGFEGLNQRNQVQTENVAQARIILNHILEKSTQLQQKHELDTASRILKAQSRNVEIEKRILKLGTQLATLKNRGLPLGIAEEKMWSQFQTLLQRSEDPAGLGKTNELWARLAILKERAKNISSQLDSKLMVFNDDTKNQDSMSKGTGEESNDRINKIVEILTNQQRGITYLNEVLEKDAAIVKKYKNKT
Sequence of Nic96 (P34077 whole entry): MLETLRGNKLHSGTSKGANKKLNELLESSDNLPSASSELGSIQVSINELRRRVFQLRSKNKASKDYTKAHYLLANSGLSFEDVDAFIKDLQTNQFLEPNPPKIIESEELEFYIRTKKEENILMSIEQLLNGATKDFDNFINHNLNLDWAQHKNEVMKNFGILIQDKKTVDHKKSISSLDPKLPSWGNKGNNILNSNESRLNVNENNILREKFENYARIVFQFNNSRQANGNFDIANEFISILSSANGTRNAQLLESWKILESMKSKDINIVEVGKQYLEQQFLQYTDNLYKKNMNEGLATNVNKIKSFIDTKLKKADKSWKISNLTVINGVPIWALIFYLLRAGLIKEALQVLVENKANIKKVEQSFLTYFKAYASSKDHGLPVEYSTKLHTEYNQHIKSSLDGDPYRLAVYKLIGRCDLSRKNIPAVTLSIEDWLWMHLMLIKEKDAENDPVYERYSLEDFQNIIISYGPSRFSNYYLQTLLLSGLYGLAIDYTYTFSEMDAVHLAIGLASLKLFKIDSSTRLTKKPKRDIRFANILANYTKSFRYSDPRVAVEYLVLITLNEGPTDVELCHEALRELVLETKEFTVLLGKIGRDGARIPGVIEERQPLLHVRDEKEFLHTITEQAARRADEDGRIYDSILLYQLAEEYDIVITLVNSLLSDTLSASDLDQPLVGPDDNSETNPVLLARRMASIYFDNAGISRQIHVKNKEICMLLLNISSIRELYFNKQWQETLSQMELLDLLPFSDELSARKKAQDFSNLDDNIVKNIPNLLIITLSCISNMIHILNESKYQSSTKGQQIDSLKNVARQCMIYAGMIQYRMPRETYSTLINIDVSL
Sequence of Nup192 (Saccharomyces cerevisiae (P47054 whole entry): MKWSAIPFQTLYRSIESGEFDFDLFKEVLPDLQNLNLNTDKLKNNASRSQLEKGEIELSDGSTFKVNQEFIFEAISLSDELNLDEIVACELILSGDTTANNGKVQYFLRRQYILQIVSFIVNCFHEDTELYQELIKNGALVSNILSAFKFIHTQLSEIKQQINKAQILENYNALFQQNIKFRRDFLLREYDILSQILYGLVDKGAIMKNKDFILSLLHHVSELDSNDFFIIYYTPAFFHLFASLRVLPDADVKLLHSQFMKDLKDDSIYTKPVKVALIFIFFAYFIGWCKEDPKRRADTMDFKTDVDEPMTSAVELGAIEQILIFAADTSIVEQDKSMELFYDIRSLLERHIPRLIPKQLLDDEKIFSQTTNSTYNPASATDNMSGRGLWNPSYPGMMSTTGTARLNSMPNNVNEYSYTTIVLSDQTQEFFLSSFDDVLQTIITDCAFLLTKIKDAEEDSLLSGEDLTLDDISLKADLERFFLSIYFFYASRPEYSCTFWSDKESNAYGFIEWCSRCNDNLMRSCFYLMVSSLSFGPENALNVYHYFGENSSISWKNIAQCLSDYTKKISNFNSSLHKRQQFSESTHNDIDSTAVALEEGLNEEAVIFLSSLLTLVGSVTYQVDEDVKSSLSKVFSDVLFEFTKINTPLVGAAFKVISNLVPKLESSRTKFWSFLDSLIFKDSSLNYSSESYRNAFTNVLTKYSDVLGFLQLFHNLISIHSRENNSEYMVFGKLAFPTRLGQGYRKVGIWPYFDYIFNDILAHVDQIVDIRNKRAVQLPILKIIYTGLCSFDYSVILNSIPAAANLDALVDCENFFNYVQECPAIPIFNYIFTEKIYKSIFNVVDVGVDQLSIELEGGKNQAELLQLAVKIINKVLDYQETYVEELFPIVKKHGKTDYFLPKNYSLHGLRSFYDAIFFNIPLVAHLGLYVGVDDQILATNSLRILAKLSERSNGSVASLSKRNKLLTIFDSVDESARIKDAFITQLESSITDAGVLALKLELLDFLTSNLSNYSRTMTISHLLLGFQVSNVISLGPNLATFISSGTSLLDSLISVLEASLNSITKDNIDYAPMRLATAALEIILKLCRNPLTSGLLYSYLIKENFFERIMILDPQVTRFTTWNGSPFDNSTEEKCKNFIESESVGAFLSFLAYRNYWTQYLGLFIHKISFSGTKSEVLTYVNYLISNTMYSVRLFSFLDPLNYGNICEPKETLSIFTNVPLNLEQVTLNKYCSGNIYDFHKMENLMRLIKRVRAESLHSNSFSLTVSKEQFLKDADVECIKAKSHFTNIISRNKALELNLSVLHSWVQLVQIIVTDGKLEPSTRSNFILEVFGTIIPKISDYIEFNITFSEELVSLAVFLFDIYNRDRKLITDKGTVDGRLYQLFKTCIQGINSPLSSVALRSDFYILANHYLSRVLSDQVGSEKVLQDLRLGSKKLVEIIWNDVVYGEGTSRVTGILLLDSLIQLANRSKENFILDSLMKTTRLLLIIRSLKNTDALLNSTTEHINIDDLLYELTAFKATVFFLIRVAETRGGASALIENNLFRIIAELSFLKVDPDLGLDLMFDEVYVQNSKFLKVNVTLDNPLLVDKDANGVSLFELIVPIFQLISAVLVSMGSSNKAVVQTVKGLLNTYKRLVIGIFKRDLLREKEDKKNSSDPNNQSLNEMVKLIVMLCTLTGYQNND
Sequence of Pom152 (Saccharomyces cerevisiae (P39685 whole entry): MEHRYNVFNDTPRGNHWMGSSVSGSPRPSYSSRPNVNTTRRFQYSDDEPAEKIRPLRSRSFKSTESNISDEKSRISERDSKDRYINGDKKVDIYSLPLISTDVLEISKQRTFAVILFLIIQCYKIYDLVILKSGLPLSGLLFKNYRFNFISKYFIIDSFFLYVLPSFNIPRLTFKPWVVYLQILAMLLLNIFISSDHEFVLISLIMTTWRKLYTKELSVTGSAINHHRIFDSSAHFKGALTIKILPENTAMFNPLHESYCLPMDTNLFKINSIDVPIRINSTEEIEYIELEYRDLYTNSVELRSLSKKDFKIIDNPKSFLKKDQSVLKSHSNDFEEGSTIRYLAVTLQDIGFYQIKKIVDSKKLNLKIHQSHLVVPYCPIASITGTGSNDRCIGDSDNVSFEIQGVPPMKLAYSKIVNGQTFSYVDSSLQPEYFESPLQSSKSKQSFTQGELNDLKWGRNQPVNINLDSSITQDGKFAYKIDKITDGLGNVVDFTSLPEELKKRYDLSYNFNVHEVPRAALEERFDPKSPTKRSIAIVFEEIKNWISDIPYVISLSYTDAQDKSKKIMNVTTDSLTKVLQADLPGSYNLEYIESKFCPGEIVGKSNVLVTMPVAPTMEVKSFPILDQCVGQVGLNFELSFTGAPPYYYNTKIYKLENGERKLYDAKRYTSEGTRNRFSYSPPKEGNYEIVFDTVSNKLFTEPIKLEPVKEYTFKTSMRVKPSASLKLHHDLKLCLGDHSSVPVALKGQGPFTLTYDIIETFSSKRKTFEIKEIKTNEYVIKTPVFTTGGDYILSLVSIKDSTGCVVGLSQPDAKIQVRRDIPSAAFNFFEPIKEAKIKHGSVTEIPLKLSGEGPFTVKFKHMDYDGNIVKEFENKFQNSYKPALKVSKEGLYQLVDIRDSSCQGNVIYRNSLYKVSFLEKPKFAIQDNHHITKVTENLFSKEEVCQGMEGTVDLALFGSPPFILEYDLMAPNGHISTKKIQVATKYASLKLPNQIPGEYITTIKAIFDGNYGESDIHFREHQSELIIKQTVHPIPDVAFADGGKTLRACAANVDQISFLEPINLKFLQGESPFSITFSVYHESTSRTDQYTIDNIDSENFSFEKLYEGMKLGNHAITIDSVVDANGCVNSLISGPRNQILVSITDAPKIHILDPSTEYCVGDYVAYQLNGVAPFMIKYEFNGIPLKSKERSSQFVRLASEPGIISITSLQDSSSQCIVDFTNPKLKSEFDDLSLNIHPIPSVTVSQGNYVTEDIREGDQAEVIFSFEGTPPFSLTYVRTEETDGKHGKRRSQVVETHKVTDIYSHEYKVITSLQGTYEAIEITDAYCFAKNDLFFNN

B1: VHH[Nic96]-ZZ (VHH)
VHH: QVQLVETGGGLVQAGGSLRLSCATSGFNFRLRTMGWYRQAPGKERELVASITSGGSTDYADSVKGRFTISRDNAKNTISLEMNSLKPDDTAVYYCNIWAPTTAAITNWGQGTQVTVSS
not listed: [7]
binds: all other assays above

B2: VHH[Nic96] (as expressed in the Pom34-ZZ strain) (VHH)
VHH: QVQLVETGGGLVQAGGSLRLSCATSGFNFRLRTMGWYRQAPGKERELVASITSGGSTDYADSVKGRFTISRDNAKNTISLEMNSLKPDDTAVYYCNIWAPTTAAITNWGQGTQVTVSS
binds: [7]
